Measured values: publication PMC5774586
Values belong to the molecule of their own block, whether it stands above or below them.

How the values were obtained:
FOXA1-Venus = FOXA1-Venus (UniProt P55317); assay: FRET or BRET
ESR1-Cerulean, P03372 = biological target: T1, ESR1-Cerulean, P03372; assay: FRET or BRET; conditions: remark: other sources report otherwise
T1 chain: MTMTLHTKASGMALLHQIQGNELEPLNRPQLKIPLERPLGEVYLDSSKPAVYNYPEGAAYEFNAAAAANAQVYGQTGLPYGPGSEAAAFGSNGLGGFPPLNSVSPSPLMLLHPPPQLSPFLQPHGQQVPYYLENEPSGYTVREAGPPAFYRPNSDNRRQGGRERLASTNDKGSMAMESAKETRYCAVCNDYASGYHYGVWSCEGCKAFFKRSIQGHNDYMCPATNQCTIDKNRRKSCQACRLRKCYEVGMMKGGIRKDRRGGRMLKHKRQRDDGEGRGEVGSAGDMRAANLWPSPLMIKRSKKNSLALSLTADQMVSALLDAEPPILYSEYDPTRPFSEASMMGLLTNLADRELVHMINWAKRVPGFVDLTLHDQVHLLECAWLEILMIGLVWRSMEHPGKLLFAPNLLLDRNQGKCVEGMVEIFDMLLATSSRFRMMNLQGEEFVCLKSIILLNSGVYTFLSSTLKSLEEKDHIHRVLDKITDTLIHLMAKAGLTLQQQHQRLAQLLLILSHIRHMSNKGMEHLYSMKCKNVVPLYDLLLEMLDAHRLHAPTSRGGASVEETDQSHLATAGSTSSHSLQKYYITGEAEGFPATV

FRET efficiency (FOXA1-Venus): 0.055
Molecule: NFIB-Cerulean (from UniProt O00712 1-420) (natural protein)

FRET efficiency (ESR1-Cerulean, P03372): 0.139
B1: FOXA1-Venus, P55317 1-472 (natural protein)
chain: MLGTVKMEGHETSDWNSYYADTQEAYSSVPVSNMNSGLGSMNSMNTYMTMNTMTTSGNMTPASFNMSYANPGLGAGLSPGAVAGMPGGSAGAMNSMTAAGVTAMGTALSPSGMGAMGAQQAASMNGLGPYAAAMNPCMSPMAYAPSNLGRSRAGGGGDAKTFKRSYPHAKPPYSYISLITMAIQQAPSKMLTLSEIYQWIMDLFPYYRQNQQRWQNSIRHSLSFNDCFVKVARSPDKPGKGSYWTLHPDSGNMFENGCYLRRQKRFKCEKQPGAGGGGGSGSGGSGAKGGPESRKDPSGASNPSADSPLHRGVHGKTGQLEGAPAPGPAASPQTLDHSGATATGGASELKTPASSTAPPISSGPGALASVPASHPAHGLAPHESQLHLKGDPHYSFNHPFSINNLMSSSEQQHKLDFKAYEQALQYSPYGSTLPASLPLGSASVTTRSPIEPSALEPAYYQGVYSRPVLNTS
